# Measurements taken from the supplement of paper PMC10724198.
# ± gives the standard deviation of the averaged measurements.
# Tested on: Saccharomyces cerevisiae
# Experiment: protein stability index of tFT-peptide fusion (C-terminal peptide) (PSI (0-1 scale)); higher = more stable (slower turnover)
# Settings: genetic background: wild type; temperature: 30 C
# Protocol: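 MPS profiling in S. cerevisiae of the yeast C-terminome library: the last 12 aa of each annotated ORF are fused to the C-terminus of a sfGFP-mCherry timer, after a GGGS linker. Cells are FACS-sorted into 8 mCherry/sfGFP bins and deep-sequenced. PSI runs from 0 (unstable) to 1 (stable); wild type and das1Δ backgrounds, two technical replicates each.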
row,Sequence,protein stability index
1,QKTAQQKNCSIM [YNL234W C-terminal 12 aa],0.721 ± 0.019
2,QLAIALSLSEIN [UFO1 C-terminal 12 aa],0.714 ± 0.035
3,QLISTPIKDNEH [KIC1 C-terminal 12 aa],0.682 ± 0.031
4,QLKLLNALDSVD [YDR537C C-terminal 12 aa],0.757 ± 0.069
5,QLLNDSPLEDKF [FBP26 C-terminal 12 aa],0.7 ± 0.026
6,QLMYEQDDEEVP [HAP3 C-terminal 12 aa],0.64582 ± 0.00022
7,QNARAAFKSTLV [YDR514C C-terminal 12 aa],0.698 ± 0.044
8,QPSSASCLFILI [AHT1 C-terminal 12 aa],0.696 ± 0.055
9,QQFYKDVYAMQD [THI2 C-terminal 12 aa],0.6413 ± 0.001
10,QSLPPTLKVNRL [RPL38 C-terminal 12 aa],0.65859 ± 0.00042
11,QTAISMNDEDDA [GVP36 C-terminal 12 aa],0.7006 ± 0.0018
12,QTLDSEYNTILQ [GAT2 C-terminal 12 aa],0.742 ± 0.073
13,QTSGTFLHFSRP [YEL075W-A C-terminal 12 aa],0.718 ± 0.062
14,QTSKGPENLQFS [RAD53 C-terminal 12 aa],0.723 ± 0.018
15,QVNKPGPLTVPF [MEH1 C-terminal 12 aa],0.716 ± 0.018
16,QWMNEMVERWAN [SOH1 C-terminal 12 aa],0.7 ± 0.0099
17,RAKTMNRSQSHV [PFK26 C-terminal 12 aa],0.7255 ± 0.0013
18,RAYCVGFKWVRF [MCH5 C-terminal 12 aa],0.145 ± 0.028
19,RDWSSFSKDYEI [PMS1 C-terminal 12 aa],0.699 ± 0.0094
20,RGRIAAQKRIAA [RPL17A C-terminal 12 aa],0.604 ± 0.045
21,RKFFKRMTNFWC [TAT1 C-terminal 12 aa],0.436 ± 0.025

row,Sequence,protein stability index
1,RKRFSYTQTKNK [RSM19 C-terminal 12 aa],0.66787 ± 0.00059
2,RKSKRVLPVSKF [PET309 C-terminal 12 aa],0.794 ± 0.087
3,RLIFYPDEYEQL [PRE3 C-terminal 12 aa],0.736 ± 0.071
4,RLKPRQIVPKRS [SLI15 C-terminal 12 aa],0.724 ± 0.054
5,RLKSQNVVTYYK [NIP100 C-terminal 12 aa],0.692 ± 0.015
6,RLSRWFNETENI [MEI4 C-terminal 12 aa],0.727 ± 0.096
7,RMLMGTTKRGRF [YAL037W C-terminal 12 aa],0.6898 ± 0.0036
8,RNVDKLDVFSNS [MRM2 C-terminal 12 aa],0.727 ± 0.037
9,RPQYRRIAALEE [PSY3 C-terminal 12 aa],0.672 ± 0.015
10,RQEEIKKRTALV [DPC25 C-terminal 12 aa],0.619 ± 0.022
11,RRFDVYSDVNAH [NIT3 C-terminal 12 aa],0.677 ± 0.044
12,RSFVTRFLHFWC [HIP1 C-terminal 12 aa],0.716 ± 0.046
13,RSIRWFREAGGK [SKI8 C-terminal 12 aa],0.7202 ± 0.0028
14,RSKYGAKKPSKS [MRPS12 C-terminal 12 aa],0.6855 ± 0.0067
15,RSNAERKRRSPL [PBP2 C-terminal 12 aa],0.68 ± 0.021
16,RSTNGRPQRGYR [YLR326W C-terminal 12 aa],0.664 ± 0.0025
17,RSWDEFIGFKAY [CPA2 C-terminal 12 aa],0.615 ± 0.041
18,RTAAESIANDRK [FRD1 C-terminal 12 aa],0.708 ± 0.05
19,RTLGYSNNNGNN [UBX6 C-terminal 12 aa],0.678 ± 0.0087
20,RTNHIYNYENSD [DFG16 C-terminal 12 aa],0.672 ± 0.011
21,RVRTLARKHLSK [TRS20 C-terminal 12 aa],0.686 ± 0.018

row,Sequence,protein stability index
1,SAEGSDVLYMQK [LSM7 C-terminal 12 aa],0.6739 ± 0.0053
2,SAENEESKEKCE [LAG1 C-terminal 12 aa],0.658 ± 0.021
3,SAIGSDIVNSIF [LSB1 C-terminal 12 aa],0.676 ± 0.024
4,SAQRDRRYRKRV [RPS17A C-terminal 12 aa],0.69 ± 0.067
5,SCGCGSSFDIEN [ISA2 C-terminal 12 aa],0.632 ± 0.0093
6,SDDDVSSESEEE [BDF1 C-terminal 12 aa],0.658 ± 0.015
7,SDGFANNRCQRK [YOR034C-A C-terminal 12 aa],0.718 ± 0.051
8,SDVISEESYNEA [SVF1 C-terminal 12 aa],0.694 ± 0.0074
9,SELQQIFPVSQQ [SPS100 C-terminal 12 aa],0.689 ± 0.033
10,SEPTNDDLDATK [MRX10 C-terminal 12 aa],0.675 ± 0.019
11,SESNDGESSDSD [RPA43 C-terminal 12 aa],0.7176 ± 0.0024
12,SFKAYVGLPTTG [PIC2 C-terminal 12 aa],0.693 ± 0.009
13,SFPVVEPMGGST [BDS1 C-terminal 12 aa],0.727 ± 0.014
14,SFRPKSSNNPFR [ENT4 C-terminal 12 aa],0.674 ± 0.021
15,SFRSSHFYSLIA [YLR217W C-terminal 12 aa],0.331 ± 0.016
16,SFTHQEQDTEMN [NAB2 C-terminal 12 aa],0.736 ± 0.019
17,SFVTKKKAACYR [YIL025C C-terminal 12 aa],0.706 ± 0.0072
18,SGIVENDFENRS [YOR1 C-terminal 12 aa],0.705 ± 0.084
19,SGKLASKKRDKK [MRPL36 C-terminal 12 aa],0.651 ± 0.019
20,SHHPHKNGKISF [YKR011C C-terminal 12 aa],0.69647 ± 0.00034
21,SHPIDVNLQFIM [MCA1 C-terminal 12 aa],0.689 ± 0.039

row,Sequence,protein stability index
1,SISHPENKVLHK [YNL195C C-terminal 12 aa],0.699 ± 0.0077
2,SIVYSWKENSSS [YGL217C C-terminal 12 aa],0.703 ± 0.015
3,SKGKNSESGGIF [PPR1 C-terminal 12 aa],0.711 ± 0.054
4,SKKSKKSKKSEE [MRH1 C-terminal 12 aa],0.695 ± 0.053
5,SKNDSPKKKGWF [MAS2 C-terminal 12 aa],0.702 ± 0.018
6,SLDVGKILDVTI [PSR1 C-terminal 12 aa],0.662 ± 0.038
7,SLFPSLETEDKK [MIH1 C-terminal 12 aa],0.671 ± 0.02
8,SLGSVFTILTDS [YGR228W C-terminal 12 aa],0.7206 ± 0.0043
9,SLKDLIMQVTKM [CTO1 C-terminal 12 aa],0.654 ± 0.069
10,SLLFVGPLFLKV [YCL007C C-terminal 12 aa],0.423 ± 0.012
11,SLRPQERNLYGL [NTH1 C-terminal 12 aa],0.753 ± 0.095
12,SLYMNISYILLF [YGR073C C-terminal 12 aa],0.2066 ± 0.0013
13,SMKPFKRRKPFF [PRP16 C-terminal 12 aa],0.72 ± 0.0089
14,SNNATHNCGNYF [YGR122W C-terminal 12 aa],0.764 ± 0.01
15,SNPSSHIKKKGL [RRT6 C-terminal 12 aa],0.6362 ± 0.0061
16,SNRTLSNETDAL [ACE2 C-terminal 12 aa],0.701 ± 0.016
17,SPGYKAYLREER [YSF3 C-terminal 12 aa],0.685 ± 0.019
18,SPPLSTSPDSRR [YLR416C C-terminal 12 aa],0.713 ± 0.029
19,SPRLKENEHVTN [MPC54 C-terminal 12 aa],0.724 ± 0.072
